The target in assay [1] is T1, HER2m1-Fc (human, UniProt P04626 23-652).
T1 construct: also called HERm1; Her2 ml
The experiment in a line: indirect ELISA as in Example 2-6, EC50 compared.

Assay [2] concerns the target T2, HER2m2-Fc (human, UniProt P04626 23-652).
T2 construct: also called HERm2; Herm2
Briefly: indirect ELISA as in Example 2-6, EC50 compared. A general note: In an ELISA, binding on a coated surface is turned into a signal by an enzyme label.

B1: Tmab-CLC5 (antibody, human IgG1, kappa, V domains shown)
VH: not shown
VL: DIQMTQSPSSLSASVGDRVTITCKASQDVSIGVAWYQQKPGKAPKLLIYSASYRYTGVPSRFSGSGSGTDFTLTISSLQPEDFATYYCQQYYIYPYTFGQGTKVEIKR
For B1, in assay [1], the “fold reduction of affinity against the original Trastuzumab” value was roughly 1 fold.

B2: Tmab-CLC6 (antibody, human IgG1, kappa, V domains shown)
VH: not shown
VL: DIQMTQSPSSLSASVGDRVTITCKASQDVSIGVAWYQQKPGKAPKLLIYSASYRYTGVPSRFSGSGSGTDFTLTISSLQPEDFATYYCQQYYITPYTFGQGTKVEIKR
As for B2, the “fold reduction of affinity against the original Trastuzumab” value in assay [1] was roughly 1 fold.

B3: Pmab-CLC2 (antibody, human IgG1, kappa, V domains shown)
VH: EVQLVESGGGLVQPGGSLRLSCAASGFTFTDYTMDWVRQAPGKGLEWVADVNPNSGGSIYNQRFKGRFTLSVDRSKNTLYLQMNSLRAEDTAVYYCARNLGPSFYFDYWGQGTLVTVSS
VL: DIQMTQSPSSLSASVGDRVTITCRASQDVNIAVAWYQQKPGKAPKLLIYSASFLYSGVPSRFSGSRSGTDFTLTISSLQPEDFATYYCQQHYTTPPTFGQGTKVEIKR
notes: Pertuzumab heavy chain with common light chain CLC2
Turning to B3, the binding result in assay [2] is “binds”.

B4: Pmab-CLC3 (antibody, human IgG1, kappa, V domains shown)
VH: EVQLVESGGGLVQPGGSLRLSCAASGFTFTDYTMDWVRQAPGKGLEWVADVNPNSGGSIYNQRFKGRFTLSVDRSKNTLYLQMNSLRAEDTAVYYCARNLGPSFYFDYWGQGTLVTVSS
VL: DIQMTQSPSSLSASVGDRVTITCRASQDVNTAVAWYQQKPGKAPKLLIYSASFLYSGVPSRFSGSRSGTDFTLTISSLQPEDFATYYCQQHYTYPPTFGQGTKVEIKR
notes: Pertuzumab heavy chain with common light chain CLC3
As for B4, the binding result in assay [2] is “binds”.

B5: Pmab-CLC6 (antibody, human IgG1, kappa, V domains shown)
VH: EVQLVESGGGLVQPGGSLRLSCAASGFTFTDYTMDWVRQAPGKGLEWVADVNPNSGGSIYNQRFKGRFTLSVDRSKNTLYLQMNSLRAEDTAVYYCARNLGPSFYFDYWGQGTLVTVSS
VL: DIQMTQSPSSLSASVGDRVTITCKASQDVSIGVAWYQQKPGKAPKLLIYSASYRYTGVPSRFSGSGSGTDFTLTISSLQPEDFATYYCQQYYITPYTFGQGTKVEIKR
notes: Pertuzumab heavy chain with common light chain CLC6 (Y94T)
B5: the binding result in assay [2] was “binds”.

B6: Pmab-CLC4 (antibody, human IgG1, kappa, V domains shown)
VH: EVQLVESGGGLVQPGGSLRLSCAASGFTFTDYTMDWVRQAPGKGLEWVADVNPNSGGSIYNQRFKGRFTLSVDRSKNTLYLQMNSLRAEDTAVYYCARNLGPSFYFDYWGQGTLVTVSS
VL: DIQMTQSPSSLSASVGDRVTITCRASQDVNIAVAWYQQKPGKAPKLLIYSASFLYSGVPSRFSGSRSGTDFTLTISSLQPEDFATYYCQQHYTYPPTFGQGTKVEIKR
notes: Pertuzumab heavy chain with common light chain CLC4
In the case of B6, in assay [2], the binding result was “binds”.

For the origin of these results see US20210070885A1 (JIANGSU ALPHAMAB BIOPHARMACEUTICALS, published 2021).
